Results reported in publication PMC4874776.

Tests used:
[1] = target: glycosylated FG domain of Nup98 from Xenopus tropicalis (Nup98-glyco), amino acids 1 to 485, with an N-terminal His14-TEV tag (X. tropicalis); assay: spectroscopic ellipsometry + QCM-D; FG domain end-grafted through its His tag (4-11 pmol/cm^2) on His tag capturing QCM-D sensors (NTF2 with Nsp1) or on Ni2+-NTA supported lipid bilayers (Nup98-glyco, reg-FSFG, Impβ with Nsp1); NTR titrated in solution from 0.0025 to 10 uM, equilibrium bound amounts by SE; 10 mM Hepes pH 7.4, 150 mM NaCl, 23 °C; linear fit at cNTR <= 0.05 uM, Hill equation at 0.05-10 uM
[2] = target: reg-FSFG, an artificially designed regular FSFG domain with 16 repetitions of the sequence … and an N-terminal His14-TEV tag; assay: as above
[3] = target: glycosylated FG domain of Nup98 from Xenopus tropicalis (Nup98-glyco), amino acids 1 to 485, with an N-terminal His14-TEV tag (X. tropicalis); assay: spectroscopic ellipsometry; NTF2 and NTF2 W7A mutant sequentially exposed to FG domain films (5-13 pmol/cm^2), equilibrium bound amounts by SE, two to four measurements per FG domain type; native NTF2 on a reg-SSSG film (8.3 pmol/cm^2) as control
[4] = target: reg-FSFG, an artificially designed regular FSFG domain with 16 repetitions of the sequence … and an N-terminal His14-TEV tag; assay: as above

nuclear transport factor 2 from Homo sapiens (NTF2) (from UniProt P61970 1-127) (receptor)
FG motifs in the film per bound NTR at cNTR = 10 uM (FG motifs per bound NTF2 dimer) [1]: > 10 | FG motifs in the film per bound NTR at cNTR = 10 uM (FG motifs per bound NTF2 dimer) [2]: > 10

W7A mutant of NTF2 (from UniProt P61970 1-127) (receptor)
reduction of the equilibrium bound amount against native NTF2 [3]: > 80% | reduction of the equilibrium bound amount against native NTF2 [4]: > 80%
